For 4 molecules, Kd results are on record in PMC2716403 (2009).

B1: Nup153 ZnF region (protein)
chain: AGSSWQCDTCLLQNKVTDNKCIACQAAKLPLKETAKQTGIGTPSKSDKPASTSGTGFGDKFKPAIGTWDCDTCLVQNKPEAVKCVACETPKPGTGVKRALPLTVASESPVTASSSTTVTTGTLGFGDKFKRPVGSWECPVCCVSNKAEDSRCVSCTSEKPGLVSASSSNSVPVSLPSGGCLGLDKFKKPEGSWDCEVCLVQNKADSTKCIACESAKPGTKSEFKGFGT
modifications: GDP-bound Ran
B2: Nup153 ZnF region (protein)
chain: AGSSWQCDTCLLQNKVTDNKCIACQAAKLPLKETAKQTGIGTPSKSDKPASTSGTGFGDKFKPAIGTWDCDTCLVQNKPEAVKCVACETPKPGTGVKRALPLTVASESPVTASSSTTVTTGTLGFGDKFKRPVGSWECPVCCVSNKAEDSRCVSCTSEKPGLVSASSSNSVPVSLPSGGCLGLDKFKKPEGSWDCEVCLVQNKADSTKCIACESAKPGTKSEFKGFGT

The test deals with Ran (Homo sapiens, UniProt P62826). The experiment in a line: ITC.
In the case of B1, the Kd was found to be 1 µM.
Consider B2, for which binding was characterised by a dissociation constant (Kd) of 20 µM.
Molecule VGSWECPVCCVSNKAEDSRCVSCTSEKPG (GDP-bound Ran) [Nup153 ZnF3 ZnF3] gave a Kd of 6.6 µM.
Molecule AGSSWQCDTCLLQNKVTDNKCIACQAAKL (GDP-bound Ran) [Nup153 ZnF1 ZnF1] had a Kd of 6.5 µM.
